Laboratory results reported in article PMC3834820, “Structural insight into LexA–RecA* interaction” (Nucleic Acids Research, 2013).

B1: tisB operator SPR fragment (dsDNA)
DNA 1: GTTACTACTCGAGCGATTACTGTTTATTTATACAGTAAA
DNA 2: TTTACTGTATAAATAAACAGTAAT
DNA 3: CGCTCGAGTAGTAAC
B2: LexA(M24C), oxidized (disulphide-locked dimer in the DNA-binding state) (natural protein, E. coli, UniProt P0A7C2 1-202, looked up)
chain: MKALTARQQEVFDLIRDHISQTGCPPTRAEIAQRLGFRSPNAAEEHLKALARKGVIEIVSGASRGIRLLQEEEEGLPLVGRVAAGEPLLAQQHIEGHYQVDPSLFKPNADFLLRVSGMSMKDIGIMDGDLLAVHKTQDVRNGQVVVARIDDEVTVKRLKKQGNKVELLPENSEFKPIVVDLRQQSFTIEGLAVGVIRNGDWL
modifications: intermolecular disulphide bond between the Cys24 residues of the two subunits
notes: LexA repressor, E. coli, single-cysteine mutant M24C; The reduced form (20 mM DTT) was also used in the cleavage assay but is not made a molecule here; also called oxidized LexA(M24C); source: overexpressed from plasmid pLexAM24C, purified (Ni-NTA); oxidized with 0.5 mM 1,10-phenanthroline and 0.1 mM CuSO4, 30 min, room temperature

Key:
[1] = target: LexA wt (UniProt P0A7C2 1-202); assay: SPR; 150 nM LexA; LexA-operator SPR: 20 mM NaH2PO4 pH 7.3, 0.14 M NaCl, 0.005% P20, 25 C; RecA-SKBT25: 20 mM NaH2PO4 pH 7.3, 1 mM ATPgS, 2 mM MgCl2, 0.05 mM Ellman's reagent, on; details: protein: recombinant; chain copies: 2; label: 3' TEG-biotin on S9; S7 pairs with the 3' 24 nt and S9 with the 5' 15 nt of S10; nick between S7 and S9; blunt
[2] = target: the molecule itself; assay: cross-linking; intermolecular disulphide between Cys24 of two LexA(M24C) subunits on oxidation with 0.5 mM 1,10-phenanthroline and 0.1 mM CuSO4, 30 min, room temperature

Binder	binding result [1]	binding result [2]
B1	binds	
B2		binds
